We go through three sequences from paper PMC5996148.

The target of series [1] is La ribonucleoprotein domain family, member 1 (human) (UniProt Q6PKG0). Briefly: protein microarray. Particulars: 3'-biotin; Microarray: 20 mM Tris pH 7.5, 5 mM MgCl2, 100 mM KCl, 0.1% Tween-20, A/T-rich ON blocker mix; EMSA: 20 mM Tris-HCl pH 8, 100 mM KCl, 200 nM ON, 0-200 nM BRD3 …. In general terms: In EMSA bound probe runs differently from free probe, usually more slowly.

Series [2] addresses T1, small trans-membrane and glycosylated protein (human) (UniProt O95332).
T1 sequence: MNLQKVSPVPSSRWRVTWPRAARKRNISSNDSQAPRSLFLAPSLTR
As to the kind of experiment: protein microarray. Particulars: 3'-biotin; Microarray: 20 mM Tris pH 7.5, 5 mM MgCl2, 100 mM KCl, 0.1% Tween-20, A/T-rich ON blocker mix; EMSA: 20 mM Tris-HCl pH 8, 100 mM KCl, 200 nM ON, 0-200 nM BRD3 ….

As to “GGGGACAGGGGTATGGGGAGGGG [G4-3 biotinylated (CtG)]”, the binding signal came to 4.71 Z-score in series [1] and 4.59 Z-score in series [2].

In the case of “GGGAGGCTGAGGCAGG [G4-1 biotinylated (PQS2)]”, the figures for the binding signal in series [1] and in series [2] were 4.49 Z-score and 3.31 Z-score, respectively.

“GGTGACAGGGGTATGGGGAGGGG [G4-2 biotinylated (Ct1)]”: the binding signal was found to be 5.37 Z-score in series [1] and 5.81 Z-score in series [2].
